Assay results taken from IntAct's records for PubMed 26635368.

B1: Sprouty-related, EVH1 domain-containing protein 1 (Homo sapiens), Q7Z699 (parent)
chain: MSEETATSDNDNSYARVRAVVMTRDDSSGGWLPLGGSGLSSVTVFKVPHQEENGCADFFIRGERLRDKMVVLECMLKKDLIYNKVTPTFHHWKIDDKKFGLTFQSPADARAFDRGIRRAIEDISQGCPESKNEAEGADDLQANEEDSSSSLVKDHLFQQETVVTSEPYRSSNIRPSPFEDLNARRVYMQSQANQITFGQPGLDIQSRSMEYVQRQISKECGSLKSQNRVPLKSIRHVSFQDEDEIVRINPRDILIRRYADYRHPDMWKNDLERDDADSSIQFSKPDSKKSDYLYSCGDETKLSSPKDSVVFKTQPSSLKIKKSKRRKEDGERSRCVYCQERFNHEENVRGKCQDAPDPIKRCIYQVSCMLCAESMLYHCMSDSEGDFSDPCSCDTSDDKFCLRWLALVALSFIVPCMCCYVPLRMCHRCGEACGCCGGKHKAAG

Variants of: B1
Settings: with nf1_human NF1, P21359
Sequence of nf1_human NF1, P21359 (P21359 whole entry): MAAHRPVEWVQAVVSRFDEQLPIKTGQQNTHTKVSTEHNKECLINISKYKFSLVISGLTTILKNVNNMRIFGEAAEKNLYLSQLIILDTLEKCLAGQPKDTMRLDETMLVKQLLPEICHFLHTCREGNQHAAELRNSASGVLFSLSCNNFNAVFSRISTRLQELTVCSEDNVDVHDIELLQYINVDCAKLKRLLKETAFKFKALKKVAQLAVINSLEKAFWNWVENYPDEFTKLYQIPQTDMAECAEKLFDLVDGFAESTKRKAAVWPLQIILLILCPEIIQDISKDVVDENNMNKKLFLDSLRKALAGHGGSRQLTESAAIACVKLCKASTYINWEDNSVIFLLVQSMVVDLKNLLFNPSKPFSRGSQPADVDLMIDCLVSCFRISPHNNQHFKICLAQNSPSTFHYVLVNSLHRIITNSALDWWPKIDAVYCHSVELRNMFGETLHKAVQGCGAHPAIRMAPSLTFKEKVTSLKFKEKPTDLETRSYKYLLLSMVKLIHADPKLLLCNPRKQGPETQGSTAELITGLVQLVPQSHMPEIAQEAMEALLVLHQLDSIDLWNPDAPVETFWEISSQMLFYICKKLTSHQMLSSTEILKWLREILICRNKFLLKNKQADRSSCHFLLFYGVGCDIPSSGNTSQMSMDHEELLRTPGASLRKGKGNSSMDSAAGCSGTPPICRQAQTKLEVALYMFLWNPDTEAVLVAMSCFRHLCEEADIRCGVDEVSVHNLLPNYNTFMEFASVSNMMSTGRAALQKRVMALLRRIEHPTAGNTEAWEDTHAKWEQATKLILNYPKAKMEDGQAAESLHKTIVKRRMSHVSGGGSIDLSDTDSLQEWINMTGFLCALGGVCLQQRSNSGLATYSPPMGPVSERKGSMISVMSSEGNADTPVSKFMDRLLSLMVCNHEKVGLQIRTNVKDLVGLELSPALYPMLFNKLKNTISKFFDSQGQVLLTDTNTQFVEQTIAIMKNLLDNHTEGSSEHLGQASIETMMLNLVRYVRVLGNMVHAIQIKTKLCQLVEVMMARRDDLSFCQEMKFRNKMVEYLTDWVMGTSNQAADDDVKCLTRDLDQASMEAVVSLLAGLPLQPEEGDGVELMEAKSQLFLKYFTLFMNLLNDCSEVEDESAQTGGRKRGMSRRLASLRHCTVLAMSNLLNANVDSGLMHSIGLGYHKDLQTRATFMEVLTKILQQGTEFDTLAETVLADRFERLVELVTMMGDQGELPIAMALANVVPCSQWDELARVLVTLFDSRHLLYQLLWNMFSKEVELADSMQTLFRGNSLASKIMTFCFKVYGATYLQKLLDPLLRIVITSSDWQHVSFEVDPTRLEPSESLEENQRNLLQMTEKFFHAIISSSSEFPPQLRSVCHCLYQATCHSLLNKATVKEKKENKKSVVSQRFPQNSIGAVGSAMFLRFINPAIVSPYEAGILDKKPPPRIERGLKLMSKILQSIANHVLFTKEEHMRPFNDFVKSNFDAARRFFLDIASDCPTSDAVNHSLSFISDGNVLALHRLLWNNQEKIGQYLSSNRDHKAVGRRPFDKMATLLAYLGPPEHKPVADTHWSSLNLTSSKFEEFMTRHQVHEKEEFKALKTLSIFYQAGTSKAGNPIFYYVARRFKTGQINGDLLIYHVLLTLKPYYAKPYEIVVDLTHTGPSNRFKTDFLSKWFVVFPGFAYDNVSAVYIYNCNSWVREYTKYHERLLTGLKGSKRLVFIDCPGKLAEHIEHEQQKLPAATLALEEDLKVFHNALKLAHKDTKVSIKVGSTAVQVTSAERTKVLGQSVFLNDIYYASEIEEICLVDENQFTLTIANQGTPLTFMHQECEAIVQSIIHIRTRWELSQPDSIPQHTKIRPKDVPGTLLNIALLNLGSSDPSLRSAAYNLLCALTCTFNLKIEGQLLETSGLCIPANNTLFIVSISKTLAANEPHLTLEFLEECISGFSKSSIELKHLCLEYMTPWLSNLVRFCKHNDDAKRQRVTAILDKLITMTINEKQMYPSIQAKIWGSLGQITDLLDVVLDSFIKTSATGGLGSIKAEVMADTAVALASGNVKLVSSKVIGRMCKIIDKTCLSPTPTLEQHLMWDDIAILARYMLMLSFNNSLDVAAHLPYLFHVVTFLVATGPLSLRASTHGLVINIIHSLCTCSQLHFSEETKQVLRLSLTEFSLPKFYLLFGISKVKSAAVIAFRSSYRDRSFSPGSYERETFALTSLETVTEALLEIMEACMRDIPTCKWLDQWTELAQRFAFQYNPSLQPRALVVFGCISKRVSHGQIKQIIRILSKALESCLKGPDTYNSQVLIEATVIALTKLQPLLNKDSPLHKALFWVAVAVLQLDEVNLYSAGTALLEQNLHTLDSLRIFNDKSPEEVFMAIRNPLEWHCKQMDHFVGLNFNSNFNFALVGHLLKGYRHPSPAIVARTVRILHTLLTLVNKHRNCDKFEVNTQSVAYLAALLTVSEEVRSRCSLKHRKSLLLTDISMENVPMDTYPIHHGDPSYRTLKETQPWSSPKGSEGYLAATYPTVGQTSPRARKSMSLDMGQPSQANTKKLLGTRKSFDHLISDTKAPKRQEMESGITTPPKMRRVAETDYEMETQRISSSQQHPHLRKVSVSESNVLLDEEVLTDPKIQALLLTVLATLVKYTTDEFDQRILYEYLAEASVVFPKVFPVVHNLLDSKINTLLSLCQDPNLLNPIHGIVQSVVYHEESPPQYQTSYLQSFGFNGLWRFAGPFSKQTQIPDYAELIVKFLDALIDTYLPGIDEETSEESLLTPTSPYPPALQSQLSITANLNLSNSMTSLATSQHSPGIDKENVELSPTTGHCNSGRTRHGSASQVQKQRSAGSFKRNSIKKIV
MSEETATSVNDNSYARVRAVVMTRDDSSGGWLPLGGSGLSSVTVFKVPHQEENGCADFFIRGERLRDKMVVLECMLKKDLIYNKVTPTFHHWKIDDKKFGLTFQSPADARAFDRGIRRAIEDISQGCPESKNEAEGADDLQANEEDSSSSLVKDHLFQQETVVTSEPYRSSNIRPSPFEDLNARRVYMQSQANQITFGQPGLDIQSRSMEYVQRQISKECGSLKSQNRVPLKSIRHVSFQDEDEIVRINPRDILIRRYADYRHPDMWKNDLERDDADSSIQFSKPDSKKSDYLYSCGDETKLSSPKDSVVFKTQPSSLKIKKSKRRKEDGERSRCVYCQERFNHEENVRGKCQDAPDPIKRCIYQVSCMLCAESMLYHCMSDSEGDFSDPCSCDTSDDKFCLRWLALVALSFIVPCMCCYVPLRMCHRCGEACGCCGGKHKAAG [D9V] was tested, and the “effect of a mutation on the interaction” value was “with no effect”.
For MSEETATSDKDNSYARVRAVVMTRDDSSGGWLPLGGSGLSSVTVFKVPHQEENGCADFFIRGERLRDKMVVLECMLKKDLIYNKVTPTFHHWKIDDKKFGLTFQSPADARAFDRGIRRAIEDISQGCPESKNEAEGADDLQANEEDSSSSLVKDHLFQQETVVTSEPYRSSNIRPSPFEDLNARRVYMQSQANQITFGQPGLDIQSRSMEYVQRQISKECGSLKSQNRVPLKSIRHVSFQDEDEIVRINPRDILIRRYADYRHPDMWKNDLERDDADSSIQFSKPDSKKSDYLYSCGDETKLSSPKDSVVFKTQPSSLKIKKSKRRKEDGERSRCVYCQERFNHEENVRGKCQDAPDPIKRCIYQVSCMLCAESMLYHCMSDSEGDFSDPCSCDTSDDKFCLRWLALVALSFIVPCMCCYVPLRMCHRCGEACGCCGGKHKAAG [N10K], the “effect of a mutation on the interaction” value was “with no effect”.
In the case of MSEETATSDNDNSYARVRAVVMTRDDSSGRWLPLGGSGLSSVTVFKVPHQEENGCADFFIRGERLRDKMVVLECMLKKDLIYNKVTPTFHHWKIDDKKFGLTFQSPADARAFDRGIRRAIEDISQGCPESKNEAEGADDLQANEEDSSSSLVKDHLFQQETVVTSEPYRSSNIRPSPFEDLNARRVYMQSQANQITFGQPGLDIQSRSMEYVQRQISKECGSLKSQNRVPLKSIRHVSFQDEDEIVRINPRDILIRRYADYRHPDMWKNDLERDDADSSIQFSKPDSKKSDYLYSCGDETKLSSPKDSVVFKTQPSSLKIKKSKRRKEDGERSRCVYCQERFNHEENVRGKCQDAPDPIKRCIYQVSCMLCAESMLYHCMSDSEGDFSDPCSCDTSDDKFCLRWLALVALSFIVPCMCCYVPLRMCHRCGEACGCCGGKHKAAG [G30R], the “effect of a mutation on the interaction” value is reported as “decreasing interaction strength”.
With MSEETATSDNDNSYARVRAVVMTRDDSSGGCLPLGGSGLSSVTVFKVPHQEENGCADFFIRGERLRDKMVVLECMLKKDLIYNKVTPTFHHWKIDDKKFGLTFQSPADARAFDRGIRRAIEDISQGCPESKNEAEGADDLQANEEDSSSSLVKDHLFQQETVVTSEPYRSSNIRPSPFEDLNARRVYMQSQANQITFGQPGLDIQSRSMEYVQRQISKECGSLKSQNRVPLKSIRHVSFQDEDEIVRINPRDILIRRYADYRHPDMWKNDLERDDADSSIQFSKPDSKKSDYLYSCGDETKLSSPKDSVVFKTQPSSLKIKKSKRRKEDGERSRCVYCQERFNHEENVRGKCQDAPDPIKRCIYQVSCMLCAESMLYHCMSDSEGDFSDPCSCDTSDDKFCLRWLALVALSFIVPCMCCYVPLRMCHRCGEACGCCGGKHKAAG [W31C] the “effect of a mutation on the interaction” value was “decreasing interaction strength”.
In the case of MSEETATSDNDNSYARVRAVVMTQDDSSGGWLPLGGSGLSSVTVFKVPHQEENGCADFFIRGERLRDKMVVLECMLKKDLIYNKVTPTFHHWKIDDKKFGLTFQSPADARAFDRGIRRAIEDISQGCPESKNEAEGADDLQANEEDSSSSLVKDHLFQQETVVTSEPYRSSNIRPSPFEDLNARRVYMQSQANQITFGQPGLDIQSRSMEYVQRQISKECGSLKSQNRVPLKSIRHVSFQDEDEIVRINPRDILIRRYADYRHPDMWKNDLERDDADSSIQFSKPDSKKSDYLYSCGDETKLSSPKDSVVFKTQPSSLKIKKSKRRKEDGERSRCVYCQERFNHEENVRGKCQDAPDPIKRCIYQVSCMLCAESMLYHCMSDSEGDFSDPCSCDTSDDKFCLRWLALVALSFIVPCMCCYVPLRMCHRCGEACGCCGGKHKAAG [R24Q], the “effect of a mutation on the interaction” value is reported as “decreasing interaction strength”.

Variants of: B1
Settings: with nf1_human NF1, P21359
Remark: another data set of the same source
With MSEETATSDNDNSYARVRAVVMTRDDSSGRWLPLGGSGLSSVTVFKVPHQEENGCADFFIRGERLRDKMVVLECMLKKDLIYNKVTPTFHHWKIDDKKFGLTFQSPADARAFDRGIRRAIEDISQGCPESKNEAEGADDLQANEEDSSSSLVKDHLFQQETVVTSEPYRSSNIRPSPFEDLNARRVYMQSQANQITFGQPGLDIQSRSMEYVQRQISKECGSLKSQNRVPLKSIRHVSFQDEDEIVRINPRDILIRRYADYRHPDMWKNDLERDDADSSIQFSKPDSKKSDYLYSCGDETKLSSPKDSVVFKTQPSSLKIKKSKRRKEDGERSRCVYCQERFNHEENVRGKCQDAPDPIKRCIYQVSCMLCAESMLYHCMSDSEGDFSDPCSCDTSDDKFCLRWLALVALSFIVPCMCCYVPLRMCHRCGEACGCCGGKHKAAG [G30R] the “effect of a mutation on the interaction” value was “disrupting interaction strength”.
In the case of MSEETATSDNDNSYARVRAVVMTRDDSSGGCLPLGGSGLSSVTVFKVPHQEENGCADFFIRGERLRDKMVVLECMLKKDLIYNKVTPTFHHWKIDDKKFGLTFQSPADARAFDRGIRRAIEDISQGCPESKNEAEGADDLQANEEDSSSSLVKDHLFQQETVVTSEPYRSSNIRPSPFEDLNARRVYMQSQANQITFGQPGLDIQSRSMEYVQRQISKECGSLKSQNRVPLKSIRHVSFQDEDEIVRINPRDILIRRYADYRHPDMWKNDLERDDADSSIQFSKPDSKKSDYLYSCGDETKLSSPKDSVVFKTQPSSLKIKKSKRRKEDGERSRCVYCQERFNHEENVRGKCQDAPDPIKRCIYQVSCMLCAESMLYHCMSDSEGDFSDPCSCDTSDDKFCLRWLALVALSFIVPCMCCYVPLRMCHRCGEACGCCGGKHKAAG [W31C], the “effect of a mutation on the interaction” value is reported as “disrupting interaction strength”.
